No end group written: not given here. *: point of attachment. MTSSL = spin label (R1), CC1(C)C=C(CS*)C(C)(C)N1[O]

The text below walks through data of PMC3335097 (2012).

Assay [1] deals with T1, p15 fragment of Caspase-8-cleaved mouse Bid (tBid) (Mus musculus (Mouse), UniProt P70444).
T1 chain: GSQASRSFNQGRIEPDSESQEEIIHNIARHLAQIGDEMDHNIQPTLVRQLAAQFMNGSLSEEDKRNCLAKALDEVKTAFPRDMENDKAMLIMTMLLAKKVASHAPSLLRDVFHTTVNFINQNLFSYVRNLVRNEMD
Kind of assay: SEC co-elution as 20 kDa complex, with SDS-PAGE and CD melting; no detergent; detergent (DDM/OG) dissociates the fragments, cardiolipin liposomes only partly.

Assay [2] concerns the target T2, p15 fragment of spin labeled cleaved mouse Bid (cBidR1), MTSSL on C126 (Mus musculus (Mouse), UniProt P70444, MTSSL spin label (R1) on C126).
T2 chain: T1 chain
Nature of the assay: DEER EPR (also cw EPR; Trp/Tyr fluorescence at 0.5 uM); no detergent; MTSSL on C30 and C126; 2% OG or 2% DDM dissociates (reversed by OG removal), cardiolipin liposomes only partly.

B1: p7 fragment of Caspase-8-cleaved mouse Bid (protein)
chain: MDSEVSNGSGLGAEHITDLLVFGFLQSSGCTRQELEVLGRELPVQAYWEADLEDELQTD
Turning to B1, the binding result in assay [1] is “binds”.

B2: p7 fragment of spin labeled cleaved mouse Bid (cBidR1), MTSSL on C30 (protein)
chain: MDSEVSNGSGLGAEHITDLLVFGFLQSSGC(MTSSL)TRQELEVLGRELPVQAYWEADLEDELQTD
With B2, the binding result in assay [2] was “binds”.
